From the supplement of paper PMC9170038

System: MS2 coat protein
Assay: apparent KD of MS2 coat protein; designed switch direction (-1 OFF switch, 1 ON switch): -1; higher = weaker reporter binding
Summary of the method: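 Three titration conditions were used: no input, 200 uM small-molecule ligand, and an oligonucleotide input. In each, SNAP-549-labelled MS2 coat protein was raised from 0.7 or 1.5 nM, doubling, to 3 µM over designed RNA switches transcribed on Illumina chips by stalled E. coli RNA polymerase. Curve fits of normalised cluster fluorescence gave values whose per-design median over clusters is the apparent KD.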

[1] = input ligand: microRNA oligo, concentration not stated
[2] = Eterna round: R95, input ligand: microRNA oligo, concentration not stated
[3] = Eterna round: R95, input ligand: FMN 200 uM
[4] = Eterna round: R95, input ligand: none

Row | Sequence | apparent KD of MS2 coat protein [1] [nM] | apparent KD of MS2 coat protein (input ligand: FMN 200 uM) [nM] | apparent KD of MS2 coat protein (input ligand: none) [nM] | apparent KD of MS2 coat protein [2] [nM] | further results
1 | CACCGUUACACAGGAUAUCUUACAUGAGGAUCACCCAUGUAAUAAAUGAGAAUUUCGAAUGUAUUAGAGAAGGGUGGAAUCGGC [Ostracism 67 - Jieux - Exclusion NG 2] (Eterna round: R96, puzzle: Exclusion NG 2) | 29.8 |  |  |  | 
2 | AAGAACUGAGGAUAUGCAAAAGGGAAAGCUGAUCCUCAUCUACAUGAGGAUCACCCAUGUAGAAGGCGGGAAAU [Aveerve] (Eterna round: R96, puzzle: Exclusion 2) | 50.7 | 108 | 74 |  | 
3 | GCAGCAUAGUUUACUAGCUGUUACAUGAGGAUCACCCAUGUUCAGGAUAUGGUCUGGAUUACAGGCCAGAAGGGAACAAGCUGC [Eli exng3 - 029] (Eterna round: R96, puzzle: Exclusion NG 3) | 7.99 |  |  |  | 
4 | AGUUGGUCAGGAUAUUCUAUUAAUUACAUGAGGAUCACCCAUGUGAAUGGACAAGGGUGUGAAGAAGGGACUGGCG [Omei Ex5 A17c] (Eterna round: R97, puzzle: Exclusion 5) |  | 692 | 1780 |  | 
5 | AAAUAACUAGGAUAUCGAGGCACAGACAUGAGGAUCACCCAUGUGUGGUCUUCGUGCUUACGAGAAGGAGUACGGC [Teceri] (Eterna round: R96, puzzle: Exclusion 5) | 175 | 199 | 305 |  | 
6 | GUAGGGUCAGGAUAUACGGGCGGGAGGAUGUAGUGGAGUUGGUAGAAGGGACAUGAGGAUCACCCAUGUGAGAA [JR_Exclu4_Sub053] (puzzle: Exclusion 4) |  |  |  | 27.3 | 
7 | AUCAUGUUAGGAUAUACAAGAAAAGAAAAGAAAGAAAAGAAGUAGAAGGAACAUGAGGAUCACCCAUGUAAGAA [EteRNA is fun!] (Eterna round: R96, puzzle: Exclusion 4) | 23 |  |  |  | 
8 | GGUGGACAUGAGGAUCACCCAUGUGAGGAUAUCGGCUGGCUAGCGGCGGACGGCUGCUCGAGAAGGCGCAUUGU [Exclusion 1 V84] (puzzle: Exclusion 1) |  |  |  | 61.1 | 
9 | CUAACAUGCUGGUGAUCAUACAUGAGGAUCACCCAUGUAACAAGCUUUUUGCUCGUCUUAUAAUUUAAGAUCACCAG [Stov1/7-A4] (Eterna round: R97, puzzle: Sensor, turn-off variant 1) |  | 17 | 14.1 |  | 
10 | CGUGCGUAUGUGAGGAUAUGCUGGUCCUUGGAUCGGCAGAAGGCACAUGAGGAUCACCCAUGUGGUGUCGUUCA [salish99_Bmod_ex4_091] (puzzle: Brourd's mod of Exclusion 4) |  |  |  | 108 | apparent KD of MS2 coat protein [3]: 31.3 nM; apparent KD of MS2 coat protein [4]: 173 nM
11 | UCGACUAGAGGAUAUACAUGAGGAUCACCCAUGUUGGUAUCACGAAUUCAACCAACUCGUAGAAGGCUGACGAC [Eternabot (L1) Solution 98] (Eterna round: R97, puzzle: Exclusion 3) |  | 24.2 | 24.9 |  | 
12 | GGGAAACAUGAGGAUCACCCAUGUAAUGAGCAUGGAAUCCCAGAGGAUAUCGCAUGUAUGAAUGUCGAGAAGGCUGACGUUAAA [Eternabot solution 6] (Eterna round: R96, puzzle: Exclusion NG 3) | 198 | 1030 | 207 |  | 
13 | AAUCAGUGUGUGAGGAUAUUGGUGGAGUGACUUAUUAAGAAGGCACAUGAGGAUCACCCAUGUGGGAAGUCAGG [JR_BMEx4_Sub017] (Eterna round: R97, puzzle: Brourd's mod of Exclusion 4) |  | 13.9 | 14.8 |  | 
14 | GUAAACGAAGAGGAUAUAUGAUAUCAAAGCUUCAUAGAAGGCUUCACAUGAGGAUCACCCAUGUGAUCUUCAAA [Mat - Exclusion 6 - JL Mod - D26] (Eterna round: R97, puzzle: Exclusion 6) |  | 203 | 38.1 |  | 
15 | UAUACACAUGAGGAUCACCCAUGUGAGGAUAUGCGUACGUUGUCCGUAGGCGACGUGCGCAGAAGGCGCAAGGU [Mat - Mod of JL D95] (puzzle: Exclusion 1) |  |  |  | 61.4 | 
16 | CCUCUACAUGAGGAUCACCCAUGUGAGGAUAUCCUGCGAGGAUCAAAAGAUCCUCGUGGGAGAAGGCAUAUGCA [Omei Ex1 A5] (Eterna round: R97, puzzle: Exclusion 1) |  | 22.2 | 21 |  | 

Row | Sequence | apparent KD of MS2 coat protein [1] [nM] | apparent KD of MS2 coat protein (input ligand: FMN 200 uM) [nM] | apparent KD of MS2 coat protein (input ligand: none) [nM] | apparent KD of MS2 coat protein [2] [nM] | further results
17 | GGUCCACAUGAGGAUCACCCAUGUGAGGAUAUGCAGCGGGAGCCGCCGCCGAACCGAUGUAGAAGGCACACCUG [Eternabot (Original) Solution 19] (Eterna round: R97, puzzle: Exclusion 1) |  | 19 | 20.4 |  | 
18 | CCCAGUUAGUCAGGAUAUCAUACAUGAGGAUCACCCAUGUAAUAAAUGAGGAUUUCGGGUGUCUAUGAGAAGGGACGGAUAGGC [Ostracism 28 - Jieux - Exclusion NG 2] (Eterna round: R96, puzzle: Exclusion NG 2) | 18.8 | 29.6 | 24.5 |  | 
19 | UAAGUUGUGGUAGGAUAUACUUUAAAUUUCUCUAUCCAUACAUGAGGAUCACCCAUGUUUACAUUGUAGAAGGACCUUUUUGUU [JR_ExcNG2_Sub058] (Eterna round: R96, puzzle: Exclusion NG 2) | 19.7 |  |  |  | 
20 | CUCCGCGCUGUCAGGAUAUCCAGGGCCUACCGGCCGGAGAAGGGACAUGAGGAUCACCCAUGUUCGGGUUAGCA [Eszaquus] (puzzle: Brourd's mod of Exclusion 4) |  |  |  | 13.3 | 
21 | AUCGUGCAGCUUUGCUGUACGAGUACAUGAGGAUCACCCAUGUAGGAUAUGGUACGCUUUGCGUGCUAGAAGGAUAUGAGAUUU [JL ENG3 1.50] (Eterna round: R96, puzzle: Exclusion NG 3) | 24.3 | 41.7 | 38.6 |  | 
22 | CCAAGGGAGGAGGAUAUACCCGCCAAUUGGCUUGUAGAAGGCCUCACAUGAGGAUCACCCAUGUGGGACAAAAC [Eternabot (Original) Solution 21] (Eterna round: R97, puzzle: Exclusion 6) |  | 22.8 | 18.4 |  | 
23 | CUAUGAGCUGAGGAUAUCUGCAGGUUGUGCCUGGGAGAAGGCAGCACAUGAGGAUCACCCAUGUGACCGAAAUA [Mod Ex6 A.17 by Nando] (Eterna round: R97, puzzle: Exclusion 6) |  | 195 | 50.8 |  | 
24 | UUUAUUUUGCAAGGAUAUGUUUAAUUUUAGUUUCCUUACACAUGAGGAUCACCCAUGUUAUACUUACAGAAGGUGCAUAAUUUU [JR_ExcNG2_Sub038] (Eterna round: R96, puzzle: Exclusion NG 2) | 132 |  |  |  | 
25 | UGUGCGUAUGUGAGGAUAUGCUGGUCCUUGGCUCGGCAGAAGGCACAUGAGGAUCACCCAUGUGGUGUCGUACU [salish99_Bmod_ex4_067] (puzzle: Brourd's mod of Exclusion 4) |  |  |  | 75.6 | 
26 | GUGAAACAUGAGGAUCACCCAUGUGAGGAUAUGUUUUAGUACUGCUGACAGUACAUCUAUAGAAGGCACAAAGG [Mat - Mod of JL D69] (puzzle: Exclusion 1) |  |  |  | 25.4 | 
27 | AAUAAACAUGAGGAUCACCCAUGUGAGGAUAUGCAAAUAAAUAAUAAAAUAAAUAAAAGCAGAAGGCACAAUAA [JMF most obvious solution 1] (puzzle: Exclusion 1) |  |  |  | 35 | apparent KD of MS2 coat protein [3]: 31.5 nM; apparent KD of MS2 coat protein [4]: 30.9 nM
28 | UUGGCAGGUUUUUUGUUUGACAUGAGGAUCACCCAUGUUGCGUGGGUUGUGUGUGUGCGGUGUAUAUAUAUGGUUCU [-19.3, -40.7 kcal, A 14%] (Eterna round: R97, puzzle: Sensor, turn-off variant 1) |  | 203 | 364 |  | 
29 | AAGGGUAAAGGAUAUACAUGAGGAUCACCCAUGUUGAGGAAGGUUAGAUGAGGAGUAAGUAGAAGGUUAGACGA [JR_Exclu3_Sub089] (puzzle: Exclusion 3) |  |  |  | 52.6 | apparent KD of MS2 coat protein [3]: 57.1 nM; apparent KD of MS2 coat protein [4]: 69.6 nM
30 | AUAAUGUCAGGAUAUCAGAAGUUUAACCUCGGUUAAACUUCUGAGAAGGGACAUGAGGAUCACCCAUGUGAUUA [E4/3-B2] (Eterna round: R97, puzzle: Exclusion 4) |  | 68.4 | 950 |  | 
31 | CAUACUGAAGUUAGGAUAUUCGGCCGAAUACGGAUGGAGAAGGGACAUGAGGAUCACCCAUGUAGAUAGUAAAG [EX-4 Malc #14] (puzzle: Brourd's mod of Exclusion 4) |  |  |  | 21.7 | apparent KD of MS2 coat protein [3]: 26.1 nM; apparent KD of MS2 coat protein [4]: 27.6 nM
32 | GGUUGACAUGAGGAUCACCCAUGUGAGGAUAUGCGAGAGAAAAAAGUGAGGAAGAAUUGCAGAAGGCGCUGUCG [salish99-ex1_r3_015] (puzzle: Exclusion 1) |  |  |  | 37.1 | apparent KD of MS2 coat protein [3]: 69.3 nM; apparent KD of MS2 coat protein [4]: 76.9 nM
